This note sets out measurements from article PMC3936715, “Structural and functional analysis of the three MIF4G domains of nonsense-mediated decay factor UPF2” (Nucleic Acids Research, 2013).

First the molecules themselves.
B1: UPF3b RRM domain (residues 42–143) (domain or fragment, UniProt Q9BZI7 42-143, looked up)
chain: RNKEKKEALSKVVIRRLPPTLTKEQLQEHLQPMPEHDYFEFFSNDTSLYPHMYARAYINFKNQEDIILFRDRFDGYVFLDNKGQEYPAIVEFAPFQKAAKKK
notes: UPF3b, RRM domain, residues 42-143; also called UPF3b RNP domain
B2: UPF2 MIF4G-3 domain (residues 761–1054) (domain or fragment, human, UniProt Q9HAU5 761-1054, looked up)
chain: EKTVKKKRPPLQEYVRKLLYKDLSKVTTEKVLRQMRKLPWQDQEVKDYVICCMINIWNVKYNSIHCVANLLAGLVLYQEDVGIHVVDGVLEDIRLGMEVNQPKFNQRRISSAKFLGELYNYRMVESAVIFRTLYSFTSFGVNPDGSPSSLDPPEHLFRIRLVCTILDTCGQYFDRGSSKRKLDCFLVYFQRYVWWKKSLEVWTKDHPFPIDIDYMISDTLELLRPKIKLCNSLEESIRQVQDLEREFLIKLGLVNDKDSKDSMTEGENLEEDEEEEEGGAETEEQSGNESEVNE
notes: UPF2, human, Q9HAU5, MIF4G-3 construct, residues 761-1054; Limits are printed for the construct 'which we used as substrate in our assays'; also called MIF4G domain 3
B3: preformed UPF2 MIF4G-3/UPF3b complex (complex)
chain 1: B2 chain
chain 2: B1 chain
notes: UPF2, human, Q9HAU5, MIF4G-3 construct, residues 761-1054; UPF3b, RRM domain, residues 42-143; also called UPF2 MIF4G-3 in complex with UPF3b; UPF2/UPF3b
B4: UPF2 (121–1227), all three MIF4G domains and the UPF1 binding domain (domain or fragment, human, UniProt Q9HAU5 121-1227, looked up)
chain: MKEKEESIQLHQEAWERHHLRKELRSKNQNAPDSRPEENFFSRLDSSLKKNTAFVKKLKTITEQQRDSLSHDFNGLNLSKYIAEAVASIVEAKLKISDVNCAVHLCSLFHQRYADFAPSLLQVWKKHFEARKEEKTPNITKLRTDLRFIAELTIVGIFTDKEGLSLIYEQLKNIINADRESHTHVSVVISFCRHCGDDIAGLVPRKVKSAAEKFNLSFPPSEIISPEKQQPFQNLLKEYFTSLTKHLKRDHRELQNTERQNRRILHSKGELSEDRHKQYEEFAMSYQKLLANSQSLADLLDENMPDLPQDKPTPEEHGPGIDIFTPGKPGEYDLEGGIWEDEDARNFYENLIDLKAFVPAILFKDNEKSCQNKESNKDDTKEAKESKENKEVSSPDDLELELENLEINDDTLELEGGDEAEDLTKKLLDEQEQEDEEASTGSHLKLIVDAFLQQLPNCVNRDLIDKAAMDFCMNMNTKANRKKLVRALFIVPRQRLDLLPFYARLVATLHPCMSDVAEDLCSMLRGDFRFHVRKKDQINIETKNKTVRFIGELTKFKMFTKNDTLHCLKMLLSDFSHHHIEMACTLLETCGRFLFRSPESHLRTSVLLEQMMRKKQAMHLDARYVTMVENAYYYCNPPPAEKTVKKKRPPLQEYVRKLLYKDLSKVTTEKVLRQMRKLPWQDQEVKDYVICCMINIWNVKYNSIHCVANLLAGLVLYQEDVGIHVVDGVLEDIRLGMEVNQPKFNQRRISSAKFLGELYNYRMVESAVIFRTLYSFTSFGVNPDGSPSSLDPPEHLFRIRLVCTILDTCGQYFDRGSSKRKLDCFLVYFQRYVWWKKSLEVWTKDHPFPIDIDYMISDTLELLRPKIKLCNSLEESIRQVQDLEREFLIKLGLVNDKDSKDSMTEGENLEEDEEEEEGGAETEEQSGNESEVNEPEEEEGSDNDDDEGEEEEEENTDYLTDSNKENETDEENTEVMIKGGGLKHVPCVEDEDFIQALDKMMLENLQQRSGESVKVHQLDVAIPLHLKSQLRKGPPLGGGEGEAESADTMPFVMLTRKGNKQQFKILNVPMSSQLAANHWNQQQAEQEERMRMKKLTLDINERQEQED
notes: UPF2, human, Q9HAU5, residues 121-1227; the host of this construct is told only in the Supplementary Material

Experiment [1] has as its target B2. Briefly: SPR; competition: SMG1 immobilised; MIF4G-3 at constant 50 nM injected with 0, 50, 250, 500 nM UPF3b RRM domain. The settings on record: both partners purified.
For experiment [2], the target named is T1, SMG1 (full-length recombinant, wild-type, N-terminal SBP-tag) (UniProt Q96Q15 1-3661).
T1 construct: SMG1, serine/threonine-protein kinase of the PIKK family, about 415 kDa, full-length, wild type; also called SMG1 kinase; wild-type SMG1; source: recombinant, purified; not shown: SBP, N-terminal, kept
T1 sequence (Q96Q15 whole entry): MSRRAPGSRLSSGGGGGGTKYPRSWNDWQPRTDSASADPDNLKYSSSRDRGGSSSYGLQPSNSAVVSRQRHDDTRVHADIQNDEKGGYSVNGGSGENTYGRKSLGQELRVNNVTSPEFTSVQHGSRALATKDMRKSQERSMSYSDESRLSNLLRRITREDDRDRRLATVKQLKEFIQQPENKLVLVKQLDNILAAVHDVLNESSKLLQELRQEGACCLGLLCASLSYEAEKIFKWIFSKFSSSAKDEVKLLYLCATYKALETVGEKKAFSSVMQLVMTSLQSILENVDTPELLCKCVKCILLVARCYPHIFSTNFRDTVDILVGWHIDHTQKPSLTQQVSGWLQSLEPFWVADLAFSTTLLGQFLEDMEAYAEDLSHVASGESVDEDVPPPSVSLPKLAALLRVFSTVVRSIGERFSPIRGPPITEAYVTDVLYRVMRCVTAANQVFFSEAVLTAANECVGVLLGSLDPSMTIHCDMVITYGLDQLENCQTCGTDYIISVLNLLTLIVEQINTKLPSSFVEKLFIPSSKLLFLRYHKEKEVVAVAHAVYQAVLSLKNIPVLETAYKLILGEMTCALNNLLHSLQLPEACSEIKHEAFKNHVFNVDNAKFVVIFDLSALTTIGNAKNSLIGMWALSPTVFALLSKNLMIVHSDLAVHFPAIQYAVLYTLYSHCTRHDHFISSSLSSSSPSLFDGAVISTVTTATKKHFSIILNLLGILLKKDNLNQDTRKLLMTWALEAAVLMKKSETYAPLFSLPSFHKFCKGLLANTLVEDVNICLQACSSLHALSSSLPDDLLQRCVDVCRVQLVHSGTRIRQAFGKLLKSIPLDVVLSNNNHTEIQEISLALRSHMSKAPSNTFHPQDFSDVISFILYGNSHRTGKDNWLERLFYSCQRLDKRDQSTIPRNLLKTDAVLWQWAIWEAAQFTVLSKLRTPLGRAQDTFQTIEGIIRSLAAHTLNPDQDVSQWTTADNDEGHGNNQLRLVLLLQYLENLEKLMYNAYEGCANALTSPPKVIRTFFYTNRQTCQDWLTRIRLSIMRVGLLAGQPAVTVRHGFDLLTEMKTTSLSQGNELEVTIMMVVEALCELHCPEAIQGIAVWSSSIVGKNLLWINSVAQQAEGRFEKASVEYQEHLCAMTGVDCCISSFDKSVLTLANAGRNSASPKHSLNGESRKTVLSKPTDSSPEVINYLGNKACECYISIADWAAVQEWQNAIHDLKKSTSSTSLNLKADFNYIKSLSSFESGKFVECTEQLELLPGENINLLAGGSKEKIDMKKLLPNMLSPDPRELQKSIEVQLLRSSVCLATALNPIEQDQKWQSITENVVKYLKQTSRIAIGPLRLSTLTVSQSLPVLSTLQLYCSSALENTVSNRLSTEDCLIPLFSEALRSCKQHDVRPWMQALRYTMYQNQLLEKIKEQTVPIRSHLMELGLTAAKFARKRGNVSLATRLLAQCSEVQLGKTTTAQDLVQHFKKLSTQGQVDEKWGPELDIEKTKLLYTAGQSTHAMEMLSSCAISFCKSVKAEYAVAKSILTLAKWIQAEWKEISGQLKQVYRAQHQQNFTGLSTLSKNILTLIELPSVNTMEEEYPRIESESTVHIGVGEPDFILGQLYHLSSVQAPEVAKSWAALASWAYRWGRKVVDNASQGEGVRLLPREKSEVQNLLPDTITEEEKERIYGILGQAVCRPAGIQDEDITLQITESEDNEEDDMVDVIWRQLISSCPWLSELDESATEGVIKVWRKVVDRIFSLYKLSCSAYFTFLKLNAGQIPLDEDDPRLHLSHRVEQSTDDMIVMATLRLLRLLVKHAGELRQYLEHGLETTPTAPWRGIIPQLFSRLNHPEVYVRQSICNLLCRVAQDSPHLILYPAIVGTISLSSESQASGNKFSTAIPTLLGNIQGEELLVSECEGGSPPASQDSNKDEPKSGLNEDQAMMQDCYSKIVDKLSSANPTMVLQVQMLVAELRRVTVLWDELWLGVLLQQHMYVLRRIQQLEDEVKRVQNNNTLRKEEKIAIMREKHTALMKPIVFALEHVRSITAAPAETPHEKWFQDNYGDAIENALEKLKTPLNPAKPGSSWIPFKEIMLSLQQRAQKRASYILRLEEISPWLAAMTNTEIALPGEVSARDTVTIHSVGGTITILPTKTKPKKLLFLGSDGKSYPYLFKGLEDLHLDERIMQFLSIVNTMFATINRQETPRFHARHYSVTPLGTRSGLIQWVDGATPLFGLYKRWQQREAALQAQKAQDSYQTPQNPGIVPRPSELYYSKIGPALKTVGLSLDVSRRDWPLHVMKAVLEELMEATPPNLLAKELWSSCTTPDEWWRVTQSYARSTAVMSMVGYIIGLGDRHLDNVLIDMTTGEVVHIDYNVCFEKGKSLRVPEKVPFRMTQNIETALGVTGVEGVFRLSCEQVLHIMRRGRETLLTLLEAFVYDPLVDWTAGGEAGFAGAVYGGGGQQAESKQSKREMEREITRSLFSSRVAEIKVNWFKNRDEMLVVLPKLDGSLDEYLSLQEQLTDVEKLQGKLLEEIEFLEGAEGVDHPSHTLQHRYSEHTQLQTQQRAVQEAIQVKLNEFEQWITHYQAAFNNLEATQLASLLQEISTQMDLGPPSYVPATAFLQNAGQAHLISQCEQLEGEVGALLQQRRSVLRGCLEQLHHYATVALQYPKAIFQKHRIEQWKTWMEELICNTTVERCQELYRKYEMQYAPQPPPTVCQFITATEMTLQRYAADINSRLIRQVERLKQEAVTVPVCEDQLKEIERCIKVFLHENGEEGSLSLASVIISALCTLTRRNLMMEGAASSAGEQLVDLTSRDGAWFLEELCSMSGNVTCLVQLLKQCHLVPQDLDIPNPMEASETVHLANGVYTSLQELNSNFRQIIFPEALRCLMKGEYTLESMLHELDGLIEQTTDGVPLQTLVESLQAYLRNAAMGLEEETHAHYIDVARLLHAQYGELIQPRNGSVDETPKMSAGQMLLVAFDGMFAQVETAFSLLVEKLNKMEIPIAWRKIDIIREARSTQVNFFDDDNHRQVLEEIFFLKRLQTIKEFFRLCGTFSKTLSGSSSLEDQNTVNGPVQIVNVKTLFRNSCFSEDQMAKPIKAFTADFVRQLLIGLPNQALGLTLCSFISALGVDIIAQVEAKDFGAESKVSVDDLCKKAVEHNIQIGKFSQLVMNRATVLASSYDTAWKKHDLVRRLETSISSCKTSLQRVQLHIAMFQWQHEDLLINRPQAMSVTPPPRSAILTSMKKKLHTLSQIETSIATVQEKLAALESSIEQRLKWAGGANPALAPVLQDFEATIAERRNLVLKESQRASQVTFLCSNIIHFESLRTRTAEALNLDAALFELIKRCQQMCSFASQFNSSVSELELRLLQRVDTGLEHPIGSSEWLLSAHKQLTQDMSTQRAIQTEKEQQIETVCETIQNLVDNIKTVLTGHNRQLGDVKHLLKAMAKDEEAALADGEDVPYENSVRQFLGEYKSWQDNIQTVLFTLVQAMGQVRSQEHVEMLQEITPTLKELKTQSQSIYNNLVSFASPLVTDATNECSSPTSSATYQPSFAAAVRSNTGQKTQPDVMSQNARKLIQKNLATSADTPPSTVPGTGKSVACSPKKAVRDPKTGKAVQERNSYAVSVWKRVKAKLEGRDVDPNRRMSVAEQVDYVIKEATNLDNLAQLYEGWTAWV
Briefly: SPR; SMG1 immobilised via its N-terminal SBP-tag on a streptavidin (SA) chip, ~2000 RU, BIAcore 3000; analyte titrated at 25 µl/min; apparent KD from RUmax against concentration, one binding site model. Conditions: both partners purified.

As for B1, the binding result in experiment [1] is “binds”. In the case of B2, the Kd in experiment [2] was 0.06 ± 0.005 µM. On the same count and under the same terms, with B3 the figure was 0.034 ± 0.002 µM; with B4, 0.037 ± 0.005 µM.
